Experimental data as given in the supplement of paper PMC12764529.
± gives the half width of the 95% confidence interval.

Legend:
[1] = folding stability dG unfold from trypsin proteolysis; higher = more stable
Summary of the method: (§1)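 Designed mini-proteins with no cysteine and under 80 residues were kept only if AlphaFold2 dimer inter-PAE was above 15. In a PA-tagged cDNA display construct, they were digested with trypsin and chymotrypsin and then sequenced. K50 was inferred by Bayesian fitting of counts, and unfolding free energy was derived per protease or combined against a sequence-predicted unfolded-state K50 and a shared folded-state K50.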

[2] = folding stability dG unfold (combined trypsin and chymotrypsin); higher = more stable
Summary of the method: as §1

[3] = folding stability dG unfold from chymotrypsin proteolysis; higher = more stable
Summary of the method: as §1

Row | Sequence | folding stability dG unfold [1] | folding stability dG unfold [2] | folding stability dG unfold [3]
1 | SAGELELELELEFELEDGYRVEVRLRLRVRPDGSVRMELEVRIEPLPPPPPVRVVVVREDDPEALRALSAGG [r19_12_TrROS_Hall] | 2.73 ± 0.1 kcal/mol | 3.6 ± 0.61 kcal/mol | 4.49 ± 0.19 kcal/mol
2 | SAGELTAEEIAERLRKLLEELGIEEVEVEVEEVEVEEEEEPVEEEEEEELSEEERERLRRERLEEEGLLSAG [r5_9_TrROS_Hall] | 1.59 ± 0.073 kcal/mol | 1.92 ± 0.12 kcal/mol | 2.1 ± 0.037 kcal/mol
3 | SAGEPDKPFTLTLKLLLPQSEDGTPLTPEEAEELAKEISTELGVEVEEIKITSNPEGNFVEIEVKLRGSAGG [r19_322_TrMRF] | 2.02 ± 0.031 kcal/mol | 2.4 ± 0.059 kcal/mol | 2.568 ± 0.015 kcal/mol
4 | SAGEPLGPEKAKELAEELVERVAREIAERLGLAPEEVEVVSVELTPDGRLVLTLRVPEREFTFVFPVEGSAG [r5_565_TrMRF] | 3.36 ± 0.078 kcal/mol | 4.62 ± 0.054 kcal/mol | 4.89 ± 0.054 kcal/mol
5 | SAGERKVLVIENLTSEELIEAIREALEKSPPGLLILVPDPEKAEEIRRAFPGIPLVVLNRETGELVEVESAG [r5_391_TrMRF] | 3 ± 0.12 kcal/mol | 3.33 ± 0.099 kcal/mol | 3.46 ± 0.044 kcal/mol
6 | SAGEVKIEISVEKVGGKYIVRIKVTVDGKEYEYEFPAGKSVEELAKELEKKLNLKVKKIEVEVRKLPPKSAG [r5_181_TrROS_Hall] | 2.88 ± 0.11 kcal/mol | 3.28 ± 0.25 kcal/mol | 3.47 ± 0.12 kcal/mol
7 | SAGEVKIEVEGLPDKTVIRITIPYTAPGVGPSALLAVLKELGLPPETKLLKVEFYEEPKTVEALVVQGSAGG [r19_186_TrMRF] | 1.13 ± 0.088 kcal/mol | 1.63 ± 0.11 kcal/mol | 1.72 ± 0.16 kcal/mol
8 | SAGEYVLVEVERGGKVETFVLPPELAKELLEKYSPDSEIPVKLEGREVRLRVLPIKPKEPTPEELAKAASAG [r5_669_TrMRF] | 0.306 ± 0.085 kcal/mol | 1.41 ± 0.16 kcal/mol | 1.85 ± 0.14 kcal/mol
9 | SAGFEARVLEVVDLGDRRVALFELRDPEEGRYLLAVAVYDPETGLARVELWDPTDGRLVATPVVPVLPLSAG [r5_440_TrMRF] | 1.72 ± 0.027 kcal/mol | 2.12 ± 0.066 kcal/mol | 2.36 ± 0.047 kcal/mol
10 | SAGFKIKIEPIEVLPNGTVKYKAIIETEKEKYEVEAFYNPKTGLIYIYSPKTGSIMKINPKTGKIILIPSAG [r14_260_TrMRF] | 3.44 ± 0.15 kcal/mol | 4.03 ± 0.2 kcal/mol | 4.18 ± 0.11 kcal/mol
11 | SAGFSIVEVEPDEDTYTITIEYTLPNGTVKTKDLPLKAKNPVLLEISENEITIYLPDTNEVVTLPVSLISAG [r14_947_JUSTAS] | 1.92 ± 0.087 kcal/mol | 1.87 ± 0.29 kcal/mol | 1.74 ± 0.16 kcal/mol
12 | SAGFYFRITEITVNPDAGKLTIRNPNGQEQEIPPGGKISIKMRFYRFNDNGGKPETFEMEHTIPIPPGDSAG [r14_366_TrROS] | 2.62 ± 0.042 kcal/mol | 3.15 ± 0.12 kcal/mol | 3.43 ± 0.085 kcal/mol
13 | SAGGAEEARKAGRPVLLTVTVTAPGSGKVSTLPLLVPADRPVDVEALVAALFPADWAVTVSVSPVGGSAGGS [r8_127_JUSTAS] | 1.32 ± 0.028 kcal/mol | 1.27 ± 0.11 kcal/mol | 1.37 ± 0.051 kcal/mol
14 | SAGGAEELAKRLAEELREAGYEVEVVKVERLENGEVVITMKVRVVKDGKEVEEREIKLVLKLPEELLSAGGS [r8_102_TrROS_Hall] | 3.93 ± 0.097 kcal/mol | 3.98 ± 0.086 kcal/mol | 4.03 ± 0.069 kcal/mol
15 | SAGGAEIKITSIEYNPETKTITAKVEITVDGKKFTFTITIKLKAAPAPPTVTVTDKDIPGKTVTLTKTSAGG [r13_615_TrROS_Hall] | 1.51 ± 0.14 kcal/mol | 2.1 ± 0.24 kcal/mol | 2.38 ± 0.13 kcal/mol
16 | SAGGAFPPGEKVEVRIEVVELPGEGTYLLRAYLPGGKLLWERPFPEGELEAFAEEFRSLGFDTVEVTPSAGG [r13_765_TrMRF] | 2.512 ± 0.021 kcal/mol | 2.69 ± 0.035 kcal/mol | 2.736 ± 0.0075 kcal/mol
17 | SAGGAGDQPVVIVATGSDGSPRVFPFKTKEPFKVTVNFPDEKRVFTVPADEPFVFDAPDGDILLDASSAGGS [r16_456_TrMRF] | -0.23 ± 0.11 kcal/mol | 0.394 ± 0.095 kcal/mol | 0.697 ± 0.12 kcal/mol
18 | SAGGAITLEYEVETEEEAEKAIEELEKELKEKFGGPVKIEKATIEKTEDPSVPREKYRLKLTIEINKSAGGS [r8_171_JUSTAS] | 0.198 ± 0.13 kcal/mol | 0.858 ± 0.28 kcal/mol | 1.08 ± 0.11 kcal/mol
19 | SAGGAKIKFDIEPTNNTIRVKIEIWLPGGPVEIVEEEPVRVDPNGGIWISFRIRYPDGKPQEFQIPISAGGS [r8_449_TrROS] | 2.62 ± 0.057 kcal/mol | 2.88 ± 0.14 kcal/mol | 3.08 ± 0.07 kcal/mol
20 | SAGGAKITVDDNKITIELPLPNGKPAGSINEPLPDGSSRILVKFPDFVLHLEITPEGIKIASIDNNKDSAGG [r13_619_TrMRF] | 1.27 ± 0.068 kcal/mol | 1.51 ± 0.22 kcal/mol | 1.77 ± 0.064 kcal/mol
21 | SAGGALKELPDGSVELYYNTETGLFTVRVRHPDKPPLVFTVESPEDALKFAKALEEKGIKIDKVVPAPSAGG [r13_727_TrMRF] | 2.1 ± 0.068 kcal/mol | 2.02 ± 0.14 kcal/mol | 1.86 ± 0.065 kcal/mol
